The results in this text go back to patent US20200353078A1 (AstraZeneca / MedImmune, published 2020).

Changes are numbered by the printed parent chain.

The target in experiment [1] is T1, His10/Avi Human IL33-01 (human).
T1 construct: Wild type mature IL-33 with N-terminal 10xHis, Avitag and Factor Xa site; biotinylated by BirA on the Avitag where used biotinylated; reduced form unless treated; also called N-terminal His Avi IL-33; His-Avi human IL-33 wild type
T1 chain: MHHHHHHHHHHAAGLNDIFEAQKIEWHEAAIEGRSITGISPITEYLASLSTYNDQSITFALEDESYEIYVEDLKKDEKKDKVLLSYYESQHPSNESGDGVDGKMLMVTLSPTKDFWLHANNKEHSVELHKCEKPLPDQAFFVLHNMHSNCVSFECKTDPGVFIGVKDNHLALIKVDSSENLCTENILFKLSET
Put plainly: HTRF epitope competition, scFv titrated; competitor DyLight labelled 33v20064 IgG. How it is done:
(§1) This was followed by the addition of 2.5 microlitres of a solution containing 0.8 nM biotinylated human IL-33-01 combined with 0.75 nM streptavidin cryptate detection (Cisbio International, 610SAKLB) for the human assay or a solution containing 4 nM biotinylated cynomolgus IL-33 combined with 1.5 nM streptavidin cryptate detection (Cisbio International, 610SAKLB) for the cynomolgus assay. All dilutions were performed in assay buffer containing 0.8 M potassium fluoride (VWR, 26820.236) and 0.1% bovine serum albumin (BSA, PAA, K05-013) in Dulbeccos PBS (Invitrogen, 14190185). Assay plates were incubated for 1 hour at room temperature and time resolved fluorescence was read at 620 nm and 665 nm emission wavelengths using an EnVision plate reader (Perkin Elmer). Data were analysed by calculating the 665/620 nm ratio followed by the % Delta F values for each sample. The 665/620 nm ratio was used to correct for sample interference using Equation 1. The % Delta F for each sample was then calculated using Equation 2. The negative control (non-specific binding) was defined by replacing biotinylated IL-33 combined with streptavidin cryptate detection with streptavidin cryptate detection only. The % Delta F values were subsequently used to calculate % specific binding as described in Equation 3.
(§2) Unique scFv were expressed again in bacteria and purified by affinity chromatography (as described in WO01/66754). Purified anti-IL-33 antibody samples were tested for potency of inhibition by competing a dilution series of the purified preparation against DyLight labelled 33v20064 IgG or DyLight labelled 33_640027 IgG for binding to biotinylated His Avi IL33-01, biotinylated His Avi IL33-11 or biotinylated His Avi cynomolgus IL-33. Methods are as described in the previous section.

Another experiment concerns the target T2, His10/Avi Human IL33-11 (human).
T2 construct: C208S, C259S mutant (already in the entry), N-terminal His10/Avitag; also called His-Avi mutant IL-33; SCCS
T2 chain: T1 chain with C131S, C182S
Described as above. How it is done:
as §1, §2

In experiment [2] the target is T3, His10/Avi Cyno IL-33 (cynomolgus monkey).
T3 construct: also called Cynomolgus 10His Avitag IL-33; biotinylated His Avi cynomolgus IL-33
T3 chain: T1 chain with E77K, N94S, H118Q, M146R, H147S, S148F, S177Y, C182G, T183S, T193I
Described as above. As for the experimental part: as §1, §2

Experiment [3] has as its target T1, His10/Avi Human IL33-01. Put plainly: HTRF epitope competition, scFv titrated; competitor DyLight labelled 33_640027 IgG.
Experiment [4] addresses T3, His10/Avi Cyno IL-33. The experiment is described as above.
Experiment [5] addresses T4, Full-length human IL-33 (amino acids 1-270), HEK293-EBNA cell lysate (human, UniProt O95760 1-270).
T4 sequence (looked up): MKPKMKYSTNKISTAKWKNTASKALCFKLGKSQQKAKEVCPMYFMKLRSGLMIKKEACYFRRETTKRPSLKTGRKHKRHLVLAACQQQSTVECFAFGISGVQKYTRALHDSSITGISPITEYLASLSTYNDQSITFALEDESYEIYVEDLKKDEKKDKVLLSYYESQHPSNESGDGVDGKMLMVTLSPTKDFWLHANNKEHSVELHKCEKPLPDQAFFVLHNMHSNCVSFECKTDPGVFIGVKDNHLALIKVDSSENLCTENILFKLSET
The experiment in a line: cell-based or functional assay.

Experiment [6] has as its target T1, His10/Avi Human IL33-01. The experiment in a line: HTRF epitope competition, IgG titrated; competitor DyLight labelled 33_640117 IgG; 1 hour. How it is done:
(§3) As the epitope competition assay utilising 33_640027 reached its limit of sensitivity, an assay using 33_640117 was used for testing purified scFv samples. The assay was essentially as described for the 33v20064 competition assay with the following modifications: 2.5 nM DyLight labelled 33_640117 was prepared and 2.5 microlitres added to the assay plates. This was followed by the addition of 2.5 microlitres of a solution containing 0.12 nM biotinylated human IL-33-01 combined with 0.75 nM streptavidin cryptate detection (Cisbio International, 610SAKLB) for the human assay or a solution containing 0.24 nM biotinylated cynomolgus IL-33 combined with 1.5 nM streptavidin cryptate detection (Cisbio International, 610SAKLB) for the cynomolgus assay. Fluorescence was read after one hour and overnight incubation.
(§4) The ability of anti-IL-33 antibodies to inhibit the binding of biotinylated His Avi human IL-33 or cynomolgus His Avi IL-33 to the DyLight labelled 33_640117 IgG was assessed in a biochemical HTRF® (Homogeneous Time-Resolved Fluorescence, Cisbio International) competition assays as described above.

The target of experiment [7] is T3, His10/Avi Cyno IL-33. Described as above. As for the experimental part: as §3, §4
In experiment [8] the target is T1, His10/Avi Human IL33-01. The experiment in a line: HTRF epitope competition, IgG titrated; competitor DyLight labelled 33_640117 IgG; overnight. As for the experimental part:
as §3, §4

Experiment [9] has as its target T5, Human IL-33 (Axxora/Adipogen AG-40B-0038) (human, UniProt O95760 112-270, limits assumed).
T5 sequence (looked up): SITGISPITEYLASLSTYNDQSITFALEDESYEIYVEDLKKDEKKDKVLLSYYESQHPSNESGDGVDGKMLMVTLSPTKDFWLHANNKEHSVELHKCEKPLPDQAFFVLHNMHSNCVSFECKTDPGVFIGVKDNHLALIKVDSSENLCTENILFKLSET
Put plainly: cell-based or functional assay.

Another experiment addresses T6, Human IL-33 Flag®His (human).
T6 construct: Mature IL-33 with C-terminal FLAG 10xHis tag, from E. coli; biotinylated via free cysteines where used biotinylated; also called Mature Human IL-33_FH; human IL-33 FH
T6 chain: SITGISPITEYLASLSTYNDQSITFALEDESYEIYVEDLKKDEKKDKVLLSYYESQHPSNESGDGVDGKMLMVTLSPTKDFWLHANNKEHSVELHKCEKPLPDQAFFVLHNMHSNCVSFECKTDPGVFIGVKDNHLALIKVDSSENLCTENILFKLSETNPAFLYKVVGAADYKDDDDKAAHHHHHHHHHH
Put plainly: ELISA, biotinylated antigen on streptavidin plate, anti-human IgG HRP. How it is done: (§5) 96-well Greiner polypropylene plates (Greiner, 650201) were used for dilution preparation. Generally, each dilution was prepared in duplicate. IgG dilutions were allowed to block in PBS-M for 1 hour at room temperature before being used directly in ELISA experiments.
(§6) Streptavidin plates (Thermo Scientific, AB-1226) were coated with biotinylated antigen at 0.5 μg/ml in PBS and incubated overnight at 4° C. Plates were washed 3× with PBS and blocked with 300 μl/well blocking buffer (PBS-M) for 1 hour. Plates were washed 1× with PBS and blocked samples added, 50 μl/well for 1 hour at room temperature. […] Plates were washed 3× with PBS-T and developed with TMB, 50 μl/well (Sigma, T0440). The reaction was quenched with 50 μl/well 0.1M H2504 before reading on an EnVision™ plate reader, or similar equipment, at 450 nm.
(§7) Species cross-reactivity of anti-IL-33 antibodies was determined using a plate-based ELISA. Streptavidin plates (Thermo Scientific, AB-1226) were coated with biotinylated antigen at 0.5 μg/ml in PBS. Binding of purified IgG preparations was detected with anti-human IgG HRP (Sigma, A0170).

Experiment [10] concerns the target T7, Cynomolgus IL-33 Flag®His (cynomolgus monkey).
T7 construct: C-terminal FLAG 10xHis tag, E. coli; also called Mature Cynomolugus IL-33; cyno IL-33 FH
T7 chain: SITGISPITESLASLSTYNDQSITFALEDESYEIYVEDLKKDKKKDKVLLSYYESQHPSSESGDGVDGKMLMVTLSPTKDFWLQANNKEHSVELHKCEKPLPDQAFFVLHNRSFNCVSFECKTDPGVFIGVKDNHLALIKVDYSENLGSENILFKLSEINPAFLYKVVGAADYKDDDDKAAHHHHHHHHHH
Described as above. As for the experimental part: as §5, §6, §7

Another experiment deals with T8, Mouse IL-33 Flag®His (mouse).
T8 construct: C-terminal FLAG 10xHis tag, E. coli; also called Mature Mouse IL-33_FH; mouse IL-33 FH
T8 chain: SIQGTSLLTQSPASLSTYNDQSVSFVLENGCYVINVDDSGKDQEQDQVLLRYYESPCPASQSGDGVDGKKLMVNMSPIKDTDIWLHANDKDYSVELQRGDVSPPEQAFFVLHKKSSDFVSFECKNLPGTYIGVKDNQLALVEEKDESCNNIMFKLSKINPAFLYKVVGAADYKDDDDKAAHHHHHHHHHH
The experiment is described as above. As for the experimental part: as §5, §6, §7

Experiment [11] has as its target T9, Human IL-33 (Axxora/Alexis ALX-522-098) (human, UniProt O95760 112-270).
T9 sequence (looked up): T5 sequence (looked up)
Put plainly: cell-based or functional assay.

B1: 33_640047 scFv (scFv, V domains shown)
VH: EVQLLESGGGLVQPGGSLRLSCAASGFTFSSYAMSWVRQAPGKGLEWVSAISGSGGSTYYADSVKGRFTISRDNSKNTLYLQMNSLRAEDTAVYYCTRLKFMQLWGGGLRYPFGYWGQGTMVTVSS
VL: SYVLTQPPSVSVSPGQTASITCSGERMGDKYAAWYQQKPGQSPVLVIYQDTKRPSGIPERFSGSNSGNTATLTISGTQAMDEADYYCQVWDSSTGVFGGGTKVTVL
notes: Single chain Fv; also called ZZ1F7P-E01
In the case of B1, the IC50 in the experiment with His10/Avi Human IL33-01 [1] stood at 0.4 nM; with His10/Avi Human IL33-11 it was 0.5 nM; with His10/Avi Cyno IL-33 [2], 2.7 nM; with His10/Avi Human IL33-01 [3], 2.3 nM; with His10/Avi Cyno IL-33 [4] it was 8.8 nM.

B2: 33v20064 IgG1 (antibody, V domains shown)
VH: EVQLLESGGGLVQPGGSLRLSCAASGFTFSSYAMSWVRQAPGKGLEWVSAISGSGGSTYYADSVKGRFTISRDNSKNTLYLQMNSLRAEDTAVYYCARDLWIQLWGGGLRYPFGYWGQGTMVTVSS
VL: B1 VL with S1L, Y2P, T17K, V44I, A79D
notes: IgG1; also called ZZ1EBX-E05
For B2, the “IC50, Huvec IL-8 assay vs. full length IL-33 cell lysate” value in experiment [5] stood at 185 nM. Besides, the IC50 with His10/Avi Human IL33-01 [6] was 150 nM; with His10/Avi Cyno IL-33 [7], 788 nM; with His10/Avi Human IL33-01 [8], 689 nM.

B3: IL330149 IgG (antibody, V domains shown)
VH: EVQLLESGGGLVQPGGSLRLSCAASGFTFSSYAMSWVRQAPGKGLEWVSAISGSGGSTYYADSVKGRFTISRDNSKNTLYLQMNSLRAEDTAVYYCVRTLAYSTSWFFDYWGRGTLVTVSS
VL: SYELTQPPAVSVSPGQTARITCSGDALPKKYAYWYQQKSGQAPVLVIYEDAKRPSGIPERFSGSSSGTMATLTVSGAQVEDEADYYCYSTDSSGPVFGGGTKLTVL
notes: IgG1 or IgG1-TM; also called IL33149
With B3, in experiment [9], the “IC50, Mast cell IL-6 production” value stood at 298 nM. Besides, the EC50 was 0.23 nM with Human IL-33 Flag®His, 0.35 nM in experiment [10] and 0.17 nM in the experiment with Mouse IL-33 Flag®His.

B4: IL330099 IgG (antibody, V domains shown)
VH: QVQLQQSGAEVKKPGASVKVSCKASGYTFTSFYMNWVRQAPGQGLEWMGIISPRGGTTSYAQNFQGRVTMTRDTSTSTVYMELSGLRSDDTAVYYCATESFYYGSGTYSGDYYLYSGMADWGKGTLVTVSS
VL: SSELTQDPAVSAALGQTVRITCQGDSLRSYYASWYQQKPGQAPVLVIYGKNDRPSGIPDRFSGSSSGNTASLTITGAQAEDEADYYCNSRDSSGNHVVFGGGTKLTVL
notes: IgG1 or IgG1-TM
Consider B4, for which the “IC50, Mast cell IL-6 production” value in [9] turned out to be 1220 nM. Moreover, the EC50 worked out at 0.4 nM with Human IL-33 Flag®His, 0.35 nM in experiment [10] and 0.38 nM with Mouse IL-33 Flag®His.

B5: IL330107 IgG (antibody, V domains shown)
VH: QMQLVQSGGGVVQPGGSLRLSCAASGFTFSSYAMSWVRQAPGKGLEWVSAISGSGGSTYYADSVKGRFTISRDNSKNTLYLQMNSLRAEDTAVYYCAKPFPSYWYFDLWGKGTLVTVSS
VL: SYVLTQPPSVSVSPGQTARITCSGDALPKQYAYWYQQKPGQAPVLVIYKDSERPSGIPERFSGSSSGTTVTLTISGVQAEDEADYYCQSADSSGTYRVFGGGTQLTVL
notes: IgG1 or IgG1-TM
Regarding B5, the “IC50 (geomean), Mast cell IL-6 production” value in [9] came out at 283 nM. Besides, in [11], the “IC50, TF-1 proliferation” value amounted to 94 nM. Further, the figures for the EC50 (in the experiment with Human IL-33 Flag®His; in [10]; in the experiment with Mouse IL-33 Flag®His) were 0.86 nM, 1.09 nM and 0.83 nM, respectively.
